Measured values: patent US10865391B2, “Glutamate dehydrogenase mutants and their application in preparation of L-phosphinothricin” (ZHEJIANG UNIVERSITY, priority 2018, dated 2020)

B1: PpGluDH-V378A: PpGluDH mutant, valine 378 to alanine, SEQ ID NO. 2 (protein)
chain: MSTMIESVDNFLARLKQRDPGQPEFHQAVEEVLRTLWPFLEANPHYLQSGILERMVEPERAVLFRVSWVDDQGKVQVNRGYRIQMSSAIGPYKGGLRFHPSVNLSVLKFLAFEQVFKNSLTSLPMGGGKGGSDFDPKGKSDAEVMRFCQAFMSELYRHIGADCDVPAGDIGVGAREIGFMFGQYKRLANQFTSVLTGKGMTYGGSLIRPEATGYGCVYFAEEMLKRQDKRIDGRRVAVSGSGNVAQYAARKVMDLGGKVISLSDSEGTLYAEAGLTDAQWDALMELKNVKRGRISELAGQFGLEFRKGQTPWSLPCDIALPCATQNELGAEDARTLLRNGCICVAEGANMPTTLEAVDIFLDAGILYAPGKASNAGGAAVSGLEMSQNAMRLLWTAGEVDSKLHNIMQSIHHACVHYGEEADGRINYVKGANIAGFVKVADAMLAQGVV
modifications: Pseudomonas putida glutamate dehydrogenase mutant
B2: LsGluDHp-A175G: LsGluDHp mutant A175G, SEQ ID NO. 7 (protein)
chain: MTITTVSNEQLAKEYVDGVFEQLKQQNCHQAEFLQAAEEIFISLVPVFVQHPEYIKANILSRIVEPDRIISFRVAWQDDHNQVQVNRGYRVQYSNVMGPYKGGLRFHPSVNESIIKFLGFEQIFKNALTGQPIGGGKGGSNFDPKGKSDSEIMRFCQAFMTELYRHIGPDVDVPGGDIGVGAREVGYLWGQYKRLTKASESGVLTGKTPGYGGSLARKEATGYGTVYFVNEMLKDVNDSFEGKTVVVSGSGNVSTYAIEKAQQYGAKVVACSDSSGYIYDPEGLDLDVIKEIKEVKGDRISTYVSYRPNATFTNGCTGIWTIPCDIALPCATQNEINGESARTLISNGVKAIGEGANMPSDLEAINEFLNAGVLFGPAKAANAGGVAVSALEMAQDSSRVFWSFEEVDAKLHQIMKDIYSDSKAAAEKYGFPGNLVMGANIAGFIKVADGMLTEGIY
modifications: Lysinibacillus sphaericus glutamate dehydrogenase mutant

Experiments:
Format in all cases: biochemical
[1] = Standard enzyme activity measurement toward PPO, crude enzyme (per volume fermentation broth)
Protocol: The preserved recombinant E. coli is streaked onto the plate for activation. Single colonies are picked and inoculated into 5 mL LB liquid medium containing 50 μg/mL kanamycin and cultured at 37° C. for 12 h. The culture is transferred to 50 mL fresh LB liquid medium containing 50 μg/mL kanamycin at a 2% inoculum, and then incubated at 37° C. until the OD600 reaches 0.6; after that, add IPTG to a final concentration of 0.5 mM, and then proceed with induction culture under the temperature of 18° C. for 16 h.
After the cultivation, the culture is centrifuged at 10000 rpm for 10 min; discard supernatant, and collect cells. The harvested cells are washed for 2 times using pH 7.5 50 mM phosphate buffer. After that, the cells are re-suspend into the pH 7.5 phosphate buffer and disrupted ultrasonically (400W for 30 times, Ultrasonic time is 3 s, and the interval is 7 s). The cell disrupted solution is centrifuged at 12000 g for 5 min at 4° C. to remove the precipitate, and the supernatant obtained is the crude enzyme containing recombinant glutamate dehydrogenase
(§1) The standard enzyme activity measurement system: Appropriate amount of enzyme, 100 mM substrate, 10 mM coenzyme (NADH or NADPH), 500 mM NH4^+ ((NH4)2SO4); total system volume is up to 400 μL; reaction medium is pH 7.5 phosphate buffer. 35° C. reaction for 10 min; after that, add 40 uL 5 M NaOH to terminate reaction.
(§2) Definition of enzyme activity unit: The quantity of enzyme as required by generation of 1 μmol L-phosphinothricin per minute under standard reaction conditions.
Proceed with induction culture of constructed mutants, and prepare crude enzyme solution.

[2] = Specific activity of pure enzyme toward PPO
Protocol: The recombinant E. coli carrying glutamate dehydrogenase gene used in the present invention is constructed and kept by our laboratory. The vector used is pET-28a(+), and the host used is E. coli BL21(DE3). NI-NTA resin (HisPur™ Ni-NTA Resin) used for protein purification is purchased from Thermo Scientific™; protein purification is carried out in reference to specifications.
as §1, §2
Meanwhile, specific activity of pure enzyme obtained through purification has also been measured. As measured, specific activity of pure protein of wild type PpGluDH is 0.31 U/mg; specific activity of PpGluDH-A167G is 38.13 U/mg, which is 123 times higher than that of wild type; specific activity of PpGluDH-V378A is 35.96 U/mg, which is 116 times higher than that of wild type.

[3] = Preparation of L-phosphinothricin by coupling glutamate dehydrogenase with glucose dehydrogenase; details: 500 mM PPO, NADP+, 35° C., pH 7.5, 6 h
Protocol: (§3) The reaction process is monitored by measuring the concentration of substrate in the reaction solution applying high-performance liquid chromatography (HPLC). HPLC analysis method is stated as follows: column model: Pntulips® QS-C18, 5 μm, 4.6 mm×250 mm. Mobile phase: 50 mM (NH4)2HPO4, added 1% of 10% tetrabutyl ammonium hydroxide, adjusted to pH 3.6 with 50% phosphoric acid(mass fraction), added 8% acetonitrile. Detective wave length is 205 nm; flow rate is 1.0 mL/min. Column temperature is 40° C.
(§4) The enantiomeric excess and concentration of product are determined through pre-column derivatization high-performance liquid chromatography; the specific analysis method is stated as follows:
(§5) (1) HPLC condition: column model: Pntulips® QS-C18, 5 μm, 4.6 mm×250 mm. Mobile phase: 50 mM Sodium acetate: Acetonitrile=8: 0.5 (v/v). Detective wave length: 338 nm. Flow rate: 0.85 mL/min. Column temperature: 30° C.
(§6) (2) Derivatization reagent: Weigh 0.03 g phthalaldehyde and 0.1 g N-acetyl-L-cysteine, and use 400 uL ethanol for solubilization; after that, add 4 mL 0.2 mol/L borate buffer (pH 9.8) and shake for dissolution prior to storage in the fridge under the temperature of 4° C. (no more than 4 days).
(§7) (3) Derivatization reaction and analysis: Add 150 μL derivatization reagent into 100 μL sample, mix and incubate at 25° C. for 5 min, and then inject 20 μL for analysis.
Culture recombinant E. coli expressing glutamate dehydrogenase (PpGluDH) and glucose dehydrogenase (BsGDH-2M, SEQ ID NO. 21) with method in Step 3 of Embodiment 1; proceed with centrifugal collection of cells and ultrasonic cell disruption to prepare crude enzyme solution.
(§8) The final volume of the reaction is 30 mL; each sample contains 500 mM substrate PPO, 600 mM glucose, 250 mM (NH4)2SO4 and 0.5 mM NADP^+. Concentration of glutamate dehydrogenase cells (dry weight) is 1.0 g/L; concentration of glucose dehydrogenase cells (dry weight) is 1.25 g/L. Use water bath to control the reaction temperature at 35° C.; titrate ammonia to control pH at 7.5 during the reaction process. Use non-chiral HPLC to determine residual concentration of PPO after reaction for 6 h; meanwhile, use pre-column derivatization HPLC to determine the concentration and ee value of formed L-phosphinothricin.
as §8, with “0.5” for “1.0”
as §8, with “NAD^+.” for “NADP^+.”, “1.25” for “1.0”
The final volume of the reaction is 30 mL; each sample contains 500 mM substrate PPO, 600 mM glucose, 250 mM (NH4)2SO4 and 0.5 mM NAD^+. Concentration of glutamate dehydrogenase cells (dry weight) is 1.25 g/L; concentration of glucose dehydrogenase cells (dry weight) is 1.25 g/L. Use water bath to control the reaction temperature at 35° C.; titrate ammonia to control pH at 7.5 during the reaction process. […]

[4] = Preparation of L-phosphinothricin by coupling glutamate dehydrogenase with alcohol dehydrogenase; details: 500 mM PPO, 750 mM isopropanol, TBADH, NADP+, GluDH cells 0.5 g/L, 35° C., pH 7.5, 12 h
Protocol: as §3, §4, §5, §6, §7
Culture recombinant E. coli expressing glutamate dehydrogenase (LsGluDHp-A175G, SEQ ID NO. 7) and alcohol dehydrogenase (TBADH, WP_041589967.1) with method in Step 3 of Embodiment 1; proceed with centrifugal collection of cells and ultrasonic cell disruption to prepare crude enzyme solution.
The final volume of the reaction is 30 mL; each sample contains 500 mM substrate PPO, 750 mM isopropanol, 250 mM (NH4)2SO4 and 0.5 mM NADP^+. Concentration of glutamate dehydrogenase cells (dry weight) is 0.5 g/L; concentration of alcohol dehydrogenase cells (dry weight) is 2.5 g/L. Use water bath to control the reaction temperature at 35° C.; titrate ammonia to control pH at 7.5 during the reaction process. […]

Molecule	Enzyme activity (per volume fermentation broth) ([1]; toward PPO, 100 mM substrate, 10 mM coenzyme, 500 mM NH4+, pH 7.5, 35° C., 10 min, crude enzyme) [U/mL]	Enzyme activity (per volume fermentation broth), times higher than that of wild type ([1]; toward PPO, versus wild type PpGluDH) [times]	Specific activity of pure enzyme ([2]; purified protein) [U/mg]	Specific activity, times higher than that of wild type ([2]; versus wild type PpGluDH) [times]	concentration of formed L-phosphinothricin ([3]; GluDH cells 1.0 g/L) [g/L]	residual PPO ([3]; GluDH cells 1.0 g/L) [mM]	substrate conversion ([3]; GluDH cells 1.0 g/L) [%]	Fold change [1]	Enzyme activity of mutants (U/mL) ([1]; toward PPO, crude enzyme, standard system, N.D. = no detectable activity)	concentration of formed L-phosphinothricin ([3]; GluDH cells 0.5 g/L) [g/L]	residual PPO ([3]; GluDH cells 0.5 g/L) [mM]	substrate conversion ([3]; GluDH cells 0.5 g/L) [%]	concentration of formed L-phosphinothricin [4] [g/L]	residual PPO [4] [mM]	substrate conversion [4] [%]
B1	13.3	121	35.96	116	81.9	1.2	99.8	–	–	–	–	–	–	–	–
B2	–	–	–	–	–	–	–	1641	34.47	82.4	0	100	81.3	1.3	99.7
